In PMC8294330, “A cooperative PNPase-Hfq-RNA carrier complex facilitates bacterial riboregulation” (Molecular Cell, 2021):

Biological target: the molecule itself
Assay: cryo-EM structure; apo PNPase and PNPase with 3'ETSleuZ RNA; 8-12 uM in 20 mM Tris-HCl pH 8, 2.5 mM MgCl2, 150 mM KCl, 1 mM TCEP, 8 mM CHAPSO added before blotting

B1: Escherichia coli polynucleotide phosphorylase (PNPase), wild type (enzyme, UniProt P05055 1-711, looked up)
chain: MLNPIVRKFQYGQHTVTLETGMMARQATAAVMVSMDDTAVFVTVVGQKKAKPGQDFFPLTVNYQERTYAAGRIPGSFFRREGRPSEGETLIARLIDRPIRPLFPEGFVNEVQVIATVVSVNPQVNPDIVAMIGASAALSLSGIPFNGPIGAARVGYINDQYVLNPTQDELKESKLDLVVAGTEAAVLMVESEAQLLSEDQMLGAVVFGHEQQQVVIQNINELVKEAGKPRWDWQPEPVNEALNARVAALAEARLSDAYRITDKQERYAQVDVIKSETIATLLAEDETLDENELGEILHAIEKNVVRSRVLAGEPRIDGREKDMIRGLDVRTGVLPRTHGSALFTRGETQALVTATLGTARDAQVLDELMGERTDTFLFHYNFPPYSVGETGMVGSPKRREIGHGRLAKRGVLAVMPDMDKFPYTVRVVSEITESNGSSSMASVCGASLALMDAGVPIKAAVAGIAMGLVKEGDNYVVLSDILGDEDHLGDMDFKVAGSRDGISALQMDIKIEGITKEIMQVALNQAKGARLHILGVMEQAINAPRGDISEFAPRIHTIKINPDKIKDVIGKGGSVIRALTEETGTTIEIEDDGTVKIAATDGEKAKHAIRRIEEITAEIEVGRVYTGKVTRIVDFGAFVAIGGGKEGLVHISQIADKRVEKVTDYLQMGQEVPVKVLEVDRQGRIRLSIKEATEQSQPAAAPEAPAAEQGE
notes: polynucleotide phosphorylase (PNPase), Escherichia coli, full-length enzyme with RNase PH core, KH and S1 domains; Preparation follows Bandyra et al., 2016; no tag is named for the purified protein; also called wild-type PNPase; PNPase WT
stoichiometry N: 3
